Laboratory results taken from US20140120128A1.

Tests used:
Experiment in all cases: cell-based or functional assay
[1] = biological target: human TLR2 expressed on HEK293 cells (human) (UniProt O60603)
[2] = biological target: T1, human TLR8 expressed on HEK293 cells (human) (UniProt Q9NR97)
T1 sequence: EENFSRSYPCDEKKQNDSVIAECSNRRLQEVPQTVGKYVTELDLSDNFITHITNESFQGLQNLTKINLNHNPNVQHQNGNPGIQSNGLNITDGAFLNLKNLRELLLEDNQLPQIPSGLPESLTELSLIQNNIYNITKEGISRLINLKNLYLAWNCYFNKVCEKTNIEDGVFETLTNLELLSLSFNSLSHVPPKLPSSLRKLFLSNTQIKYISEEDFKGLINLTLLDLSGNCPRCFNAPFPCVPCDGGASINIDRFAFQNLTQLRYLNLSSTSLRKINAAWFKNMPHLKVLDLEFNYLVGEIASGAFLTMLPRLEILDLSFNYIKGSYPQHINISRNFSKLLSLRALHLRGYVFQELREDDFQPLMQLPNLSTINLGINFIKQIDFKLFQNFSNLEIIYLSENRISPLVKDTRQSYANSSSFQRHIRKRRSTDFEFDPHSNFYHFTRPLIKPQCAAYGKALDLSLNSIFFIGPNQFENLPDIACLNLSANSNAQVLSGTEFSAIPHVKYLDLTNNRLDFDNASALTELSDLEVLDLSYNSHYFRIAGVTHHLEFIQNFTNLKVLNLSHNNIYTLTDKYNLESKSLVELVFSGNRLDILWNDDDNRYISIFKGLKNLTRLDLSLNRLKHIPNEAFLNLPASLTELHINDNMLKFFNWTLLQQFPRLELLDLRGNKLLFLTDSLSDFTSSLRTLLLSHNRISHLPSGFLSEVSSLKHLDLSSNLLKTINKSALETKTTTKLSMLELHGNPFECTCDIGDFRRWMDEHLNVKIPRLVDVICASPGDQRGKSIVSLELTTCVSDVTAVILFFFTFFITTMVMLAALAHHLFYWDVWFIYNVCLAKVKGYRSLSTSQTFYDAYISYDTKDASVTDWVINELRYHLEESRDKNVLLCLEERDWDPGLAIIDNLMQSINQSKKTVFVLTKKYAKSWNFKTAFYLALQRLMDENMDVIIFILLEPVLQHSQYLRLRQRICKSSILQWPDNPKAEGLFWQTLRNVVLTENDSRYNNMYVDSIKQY

[3] = biological target: human TLR4 (MD2-CD14) expressed on HEK293 cells (human) (UniProt O00206)
Sequence of human TLR4 (MD2-CD14) expressed on HEK293 cells (human) (O00206 24-839 limits assumed, chain 1 of 3): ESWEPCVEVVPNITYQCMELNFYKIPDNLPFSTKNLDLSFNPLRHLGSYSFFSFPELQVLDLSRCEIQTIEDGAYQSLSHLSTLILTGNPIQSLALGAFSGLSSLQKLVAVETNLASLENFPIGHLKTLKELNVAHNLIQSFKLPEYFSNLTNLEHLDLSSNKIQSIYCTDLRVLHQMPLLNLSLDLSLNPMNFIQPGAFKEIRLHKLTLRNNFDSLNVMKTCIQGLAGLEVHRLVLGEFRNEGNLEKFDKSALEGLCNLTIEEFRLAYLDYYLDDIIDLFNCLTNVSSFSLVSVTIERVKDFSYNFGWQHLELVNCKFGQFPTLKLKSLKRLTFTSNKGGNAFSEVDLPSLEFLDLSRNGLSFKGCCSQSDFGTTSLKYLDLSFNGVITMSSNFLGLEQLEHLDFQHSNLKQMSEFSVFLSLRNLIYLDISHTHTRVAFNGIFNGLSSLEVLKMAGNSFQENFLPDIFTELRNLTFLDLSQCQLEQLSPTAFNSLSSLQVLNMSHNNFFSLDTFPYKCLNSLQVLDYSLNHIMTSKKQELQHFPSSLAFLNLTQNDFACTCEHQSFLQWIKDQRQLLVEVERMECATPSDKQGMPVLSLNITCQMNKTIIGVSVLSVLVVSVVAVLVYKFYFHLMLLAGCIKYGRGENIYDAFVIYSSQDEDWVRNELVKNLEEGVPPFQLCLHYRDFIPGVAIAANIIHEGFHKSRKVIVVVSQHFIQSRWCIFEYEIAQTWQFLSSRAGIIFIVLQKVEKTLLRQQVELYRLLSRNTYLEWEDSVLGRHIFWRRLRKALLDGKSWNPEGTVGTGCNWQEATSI
Sequence of human TLR4 (MD2-CD14) expressed on HEK293 cells (human) (Q9Y6Y9 19-160 limits assumed, chain 2 of 3, further chain): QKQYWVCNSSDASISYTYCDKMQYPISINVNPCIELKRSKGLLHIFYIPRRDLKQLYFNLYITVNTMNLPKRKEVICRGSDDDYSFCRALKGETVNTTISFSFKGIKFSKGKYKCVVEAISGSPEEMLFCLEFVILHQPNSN
Sequence of human TLR4 (MD2-CD14) expressed on HEK293 cells (human) (P08571 20-345 limits assumed, chain 3 of 3, further chain): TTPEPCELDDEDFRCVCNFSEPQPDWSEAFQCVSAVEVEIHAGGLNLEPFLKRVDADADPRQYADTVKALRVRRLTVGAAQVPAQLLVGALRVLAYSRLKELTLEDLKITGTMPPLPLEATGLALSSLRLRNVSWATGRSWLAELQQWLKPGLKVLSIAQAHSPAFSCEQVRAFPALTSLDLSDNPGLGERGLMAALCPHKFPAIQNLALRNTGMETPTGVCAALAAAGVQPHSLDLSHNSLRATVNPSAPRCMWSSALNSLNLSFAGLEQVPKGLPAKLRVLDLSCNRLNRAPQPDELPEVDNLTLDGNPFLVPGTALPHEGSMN

[4] = biological target: human TLR3 expressed on HEK293 cells (human) (UniProt O15455)
[5] = biological target: T2, human TLR9 expressed on HEK293 cells (human) (UniProt Q9NR96)
T2 sequence: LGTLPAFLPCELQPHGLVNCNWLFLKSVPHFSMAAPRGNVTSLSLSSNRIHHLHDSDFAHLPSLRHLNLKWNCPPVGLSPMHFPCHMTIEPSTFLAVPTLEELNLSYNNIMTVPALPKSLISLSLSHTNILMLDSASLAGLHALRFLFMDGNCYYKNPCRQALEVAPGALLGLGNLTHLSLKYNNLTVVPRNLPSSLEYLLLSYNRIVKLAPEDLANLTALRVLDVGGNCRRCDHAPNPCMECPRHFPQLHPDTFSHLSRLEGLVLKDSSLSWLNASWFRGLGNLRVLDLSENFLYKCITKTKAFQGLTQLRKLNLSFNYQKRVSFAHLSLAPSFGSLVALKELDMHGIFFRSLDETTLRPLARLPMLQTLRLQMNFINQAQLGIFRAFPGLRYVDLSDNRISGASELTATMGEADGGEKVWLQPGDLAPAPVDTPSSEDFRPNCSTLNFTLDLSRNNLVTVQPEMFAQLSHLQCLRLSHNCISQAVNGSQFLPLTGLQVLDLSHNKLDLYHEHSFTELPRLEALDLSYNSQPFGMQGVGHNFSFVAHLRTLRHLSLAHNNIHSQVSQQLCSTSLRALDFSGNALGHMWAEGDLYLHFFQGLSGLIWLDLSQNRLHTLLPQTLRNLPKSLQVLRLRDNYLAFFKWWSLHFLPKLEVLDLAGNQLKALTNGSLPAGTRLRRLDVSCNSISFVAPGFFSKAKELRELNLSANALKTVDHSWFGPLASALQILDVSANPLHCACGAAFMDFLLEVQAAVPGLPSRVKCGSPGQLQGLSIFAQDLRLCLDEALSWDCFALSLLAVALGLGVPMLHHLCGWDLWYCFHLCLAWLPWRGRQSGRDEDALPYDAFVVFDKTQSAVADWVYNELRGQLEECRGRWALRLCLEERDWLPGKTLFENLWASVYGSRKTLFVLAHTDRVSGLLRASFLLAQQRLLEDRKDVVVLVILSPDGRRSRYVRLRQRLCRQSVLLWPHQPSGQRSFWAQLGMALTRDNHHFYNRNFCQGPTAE

[6] = biological target: human TLR5 expressed on HEK293 cells (human) (UniProt O60602)
Sequence of human TLR5 expressed on HEK293 cells (human) (O60602 21-858): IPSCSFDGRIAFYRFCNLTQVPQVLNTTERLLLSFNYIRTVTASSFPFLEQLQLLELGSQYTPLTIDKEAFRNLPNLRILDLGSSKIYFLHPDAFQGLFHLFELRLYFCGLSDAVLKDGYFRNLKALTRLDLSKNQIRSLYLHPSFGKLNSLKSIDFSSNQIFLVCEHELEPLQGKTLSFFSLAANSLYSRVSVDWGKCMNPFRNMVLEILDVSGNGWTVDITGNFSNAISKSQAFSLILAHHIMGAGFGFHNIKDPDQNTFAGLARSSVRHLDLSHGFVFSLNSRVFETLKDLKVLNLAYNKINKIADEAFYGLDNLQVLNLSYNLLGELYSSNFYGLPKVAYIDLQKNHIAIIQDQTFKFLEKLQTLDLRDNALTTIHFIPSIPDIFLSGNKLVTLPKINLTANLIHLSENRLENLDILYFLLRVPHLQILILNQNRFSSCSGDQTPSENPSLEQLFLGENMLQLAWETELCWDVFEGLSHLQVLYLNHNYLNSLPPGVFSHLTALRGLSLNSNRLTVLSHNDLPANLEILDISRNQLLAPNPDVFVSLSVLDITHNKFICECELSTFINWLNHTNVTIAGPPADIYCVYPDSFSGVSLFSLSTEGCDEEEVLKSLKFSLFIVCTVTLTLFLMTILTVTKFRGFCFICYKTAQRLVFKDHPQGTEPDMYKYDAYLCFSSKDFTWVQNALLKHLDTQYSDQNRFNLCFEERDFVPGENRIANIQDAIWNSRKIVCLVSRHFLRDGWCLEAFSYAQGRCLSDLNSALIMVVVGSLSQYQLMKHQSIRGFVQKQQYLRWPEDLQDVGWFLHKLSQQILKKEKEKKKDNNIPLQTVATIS

[7] = biological target: human TLR7 expressed on HEK293 cells (human) (UniProt Q9NYK1)
Sequence of human TLR7 expressed on HEK293 cells (human) (Q9NYK1 27-1049): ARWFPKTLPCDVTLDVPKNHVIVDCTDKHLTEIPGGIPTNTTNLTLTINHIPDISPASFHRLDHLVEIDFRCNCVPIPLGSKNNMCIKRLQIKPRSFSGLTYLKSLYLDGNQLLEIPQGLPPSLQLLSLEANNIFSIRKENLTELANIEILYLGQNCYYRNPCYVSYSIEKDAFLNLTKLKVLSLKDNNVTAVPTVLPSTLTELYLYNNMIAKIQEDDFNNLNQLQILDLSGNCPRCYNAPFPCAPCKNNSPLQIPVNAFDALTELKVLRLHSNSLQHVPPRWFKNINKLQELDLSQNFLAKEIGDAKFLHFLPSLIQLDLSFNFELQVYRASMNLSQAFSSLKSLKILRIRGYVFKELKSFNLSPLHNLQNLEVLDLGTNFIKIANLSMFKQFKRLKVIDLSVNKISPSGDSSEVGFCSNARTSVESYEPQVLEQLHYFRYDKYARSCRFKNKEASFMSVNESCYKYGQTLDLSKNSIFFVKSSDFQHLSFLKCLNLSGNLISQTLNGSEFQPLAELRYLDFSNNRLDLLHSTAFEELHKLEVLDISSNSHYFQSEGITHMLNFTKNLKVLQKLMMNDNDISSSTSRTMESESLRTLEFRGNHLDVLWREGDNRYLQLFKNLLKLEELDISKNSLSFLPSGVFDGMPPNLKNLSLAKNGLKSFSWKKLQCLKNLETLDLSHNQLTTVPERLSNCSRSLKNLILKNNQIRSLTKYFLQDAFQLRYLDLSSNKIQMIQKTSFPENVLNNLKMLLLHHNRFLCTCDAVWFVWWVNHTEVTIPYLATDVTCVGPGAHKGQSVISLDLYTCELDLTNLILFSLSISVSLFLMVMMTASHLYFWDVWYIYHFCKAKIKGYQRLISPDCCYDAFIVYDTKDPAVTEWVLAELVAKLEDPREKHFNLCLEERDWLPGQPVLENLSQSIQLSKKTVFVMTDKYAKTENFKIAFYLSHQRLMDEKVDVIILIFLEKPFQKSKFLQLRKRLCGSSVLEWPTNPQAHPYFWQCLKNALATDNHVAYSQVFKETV

Sequence of human TLR2 expressed on HEK293 cells (human) (O60603 21-784): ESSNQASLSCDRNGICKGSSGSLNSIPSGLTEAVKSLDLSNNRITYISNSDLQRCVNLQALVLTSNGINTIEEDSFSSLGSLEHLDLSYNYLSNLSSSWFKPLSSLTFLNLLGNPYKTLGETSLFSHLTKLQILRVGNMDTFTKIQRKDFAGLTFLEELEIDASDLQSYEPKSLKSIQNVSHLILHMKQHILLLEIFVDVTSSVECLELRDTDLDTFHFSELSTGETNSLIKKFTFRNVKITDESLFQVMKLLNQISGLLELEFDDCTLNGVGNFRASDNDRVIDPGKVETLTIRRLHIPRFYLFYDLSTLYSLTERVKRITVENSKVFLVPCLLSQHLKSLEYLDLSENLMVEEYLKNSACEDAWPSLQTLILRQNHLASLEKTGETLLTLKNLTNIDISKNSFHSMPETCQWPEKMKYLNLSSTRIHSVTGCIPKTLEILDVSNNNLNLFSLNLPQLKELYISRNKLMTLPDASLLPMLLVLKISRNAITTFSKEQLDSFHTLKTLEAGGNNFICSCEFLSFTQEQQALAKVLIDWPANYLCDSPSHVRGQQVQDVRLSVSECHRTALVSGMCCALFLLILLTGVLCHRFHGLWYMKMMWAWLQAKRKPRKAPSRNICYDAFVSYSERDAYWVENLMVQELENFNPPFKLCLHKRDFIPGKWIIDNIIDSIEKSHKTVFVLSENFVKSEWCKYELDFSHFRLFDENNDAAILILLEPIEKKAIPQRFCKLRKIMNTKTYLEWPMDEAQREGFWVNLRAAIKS

“wild type YscF (from UniProt O68691 1-87)” gave an SEAP reporter expression in HEK293 cells, screening 1 [1] of 0.283, an SEAP reporter expression in HEK293 cells, screening 2 [1] of 0.272 and an SEAP reporter expression in HEK293 cells, screening 1 [2] of 0.096. The SEAP reporter expression in HEK293 cells, screening 2 [2] was 0.095, the SEAP reporter expression in HEK293 cells, screening 1 [3] was 0.98 and the SEAP reporter expression in HEK293 cells, screening 2 [3] was 0.861. It also gave an SEAP reporter expression in HEK293 cells, screening 1 [4] of 0.1, an SEAP reporter expression in HEK293 cells, screening 2 [4] of 0.093 and an SEAP reporter expression in HEK293 cells, screening 1 [5] of 0.075. It also gave an SEAP reporter expression in HEK293 cells, screening 2 [5] of 0.074, an SEAP reporter expression in HEK293 cells, screening 1 [6] of 0.136 and an SEAP reporter expression in HEK293 cells, screening 2 [6] of 0.139. For the same substance, the SEAP reporter expression in HEK293 cells, screening 1 [7] was 0.095 and the SEAP reporter expression in HEK293 cells, screening 2 [7] was 0.094.
